{"source": "paper PMC2080633", "about": "“Dimerization of inositol monophosphatase Mycobacterium tuberculosis SuhB is not constitutive, but induced by binding of the activator Mg^2+” (BMC Structural Biology, 2007)", "target": "the molecule itself", "assay": "AUC; sedimentation velocity, 1.0 mg.ml^-1 SuhB, no Mg^2+; 20 mM Tris-HCl pH 7.9, 50 mM NaCl, 40,000 rpm, 4°C; monomer to dimer", "data": [{"protein": "Mycobacterium tuberculosis SuhB (Rv2701c), inositol monophosphatase (enzyme, Inositol monophosphatase SuhB (Rv2701c) of Mycobacterium tuberculosis; the crystal model covers residues 5-34, 54-85, 98-253, 260-286; also called IMPase) MTRPDNEPARLRSVAENLAAEAAAFVRGRRAEVFGISRAGDGDGAVRAKSSPTDPVTVVDTDTERLLRDRLAQLRPGDPILGEEGGGPADVTATPSDRVTWVLDPIDGTVNFVYGIPAYAVSIGAQVGGITVAGAVADVAARTVYSAATGLGAHLTDERGRHVLRCTGVDELSMALLGTGFGYSVRCREKQAELLAHVVPLVRDVRRIGSAALDLCMVAAGRLDAYYEHGVQVWDCAAGALIAAEAGARVLLSTPRAGGAGLVVVAAAPGIADELLAALQRFNGLEPIPD", "values": [{"measurement": "stoichiometry N", "value": 2}]}]}
